Here are results for five sequences from paper PMC4005678.

This data set concerns the target Klf4 ZnF1-3 DNA-binding domain (mouse) (UniProt Q60793). The data set is described as follows: fluorescence polarization. The conditions noted are these: FP: 20 mM Tris-HCl pH 7.5, 150 mM NaCl, 5% (v/v) glycerol, 0.5 mM TCEP, ~22 C, probe 10 nM (WT) or 1 nM (E446A).

Chain of Klf4 ZnF1-3 DNA-binding domain (mouse) (Q60793 396-483): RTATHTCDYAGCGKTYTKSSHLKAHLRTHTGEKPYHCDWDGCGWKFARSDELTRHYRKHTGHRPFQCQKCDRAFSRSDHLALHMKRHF

Take “GAGGCGTGGC / TTGCCACGCCTC [Klf4 site C/C]”: the binding signal (fold weaker than M/M) turned out to be 1.5.

Where the note is “5caC at position 5 of strand 1, 5mC at position 7 of strand 2”, “GAGGCGTGGC / TTGCCACGCCTC [Klf4 site 5caC/M]” returned a binding signal (fold weaker than M/M) of 6.

As to “GAGGCGTGGC / TTGCCACGCCTC [Klf4 site C/M]”, for the setting “repeat series, C at position 5 of strand 1, 5mC at position 7 of strand 2”, the binding signal (fold weaker than M/M) is 1.5. For the same sequence, the binding signal (fold Kd vs M/M) (text: difference only ~40%, C at position 5 of strand 1, 5mC at position 7 of strand 2) was found to be 1.4.

The sequence “GAGGCGTGGC / TTGCCACGCCTC [Klf4 site 5hmC/M]” yielded a binding signal (fold weaker than M/M) (5hmC at position 5 of strand 1, 5mC at position 7 of strand 2) of 2.

“GAGGCGTGGC / TTGCCACGCCTC [Klf4 site 5fC/M]” returned a binding signal (fold weaker than M/M) (5fC at position 5 of strand 1, 5mC at position 7 of strand 2) of 3.
